Results: paper PMC4183573, “Cyclophilin A Associates with Enterovirus-71 Virus Capsid and Plays an Essential Role in Viral Infection as an Uncoating Regulator” (PLoS Pathogens, 2014)
Where no end group is shown, it is not given here.

Biological target: T1, recombinant human CypA without a GST tag (human, UniProt P62937 1-165)
T1 construct: cyclophilin A (CypA), human, cloned into pGEX-6p-1; source: E. coli BL21 (DE3), purified (GST column, PreScission Protease, Superdex-75); not shown: GST, N-terminal, cleaved
Assay: pull-down; recombinant human CypA (200 µg) with 50 µl glutathione-sepharose beads holding GST, GST-1S or GST-1P (200 µg) in 300 µl buffer (50 mM Tris-HCl pH 8.0, 150 mM NaCl, 1% Nonidet P-40, 2 mM EDTA), overnight at 4°C; eluted with GSH; blot for GST and CypA
Conditions: both partners purified

| Binder | binding result |
| --- | --- |
| GSSKSKYPL (also: fused to GST, H-I loop of the capsid protein VP1 of EV71, residues 239-247; numbers count on: the VP1 protein, not the polypeptide; source: E. coli BL21 (DE3), held on glutathione-sepharose (GST column) beads; not shown: GST, N-terminal, kept) [GST-1S: peptide of the H-I loop of EV71 VP1 (239-GSSKSKYPL-247) fused to GST] | binds |
| GSSKPKYPL (also: fused to GST, H-I loop of the capsid protein VP1 of EV71, residues 239-247, with S243P; numbers count on: the VP1 protein, not the polypeptide; source: E. coli BL21 (DE3), held on glutathione-sepharose (GST column) beads; not shown: GST, N-terminal, kept) [GST-1P: H-I loop of EV71 VP1 with the S243P substitution (239-GSSKPKYPL-247) fused to GST] | binds |
